The sequences below were run against T1, MBP-GlnR (Mycobacterium smegmatis (SMR5?)) (UniProt A0R4C4) (assay: EMSA). Details: GlnR: DIG Gel Shift Kit (Roche) buffer, 6% native PAGE, 0.5x TBE; AmtR: 20 mM Tris-HCl pH 7.9, 25 mM KCl, 1 mM DTT, 5 mM MgCl2, 0.5 mg/ml BSA, 5% glycerol ….
T1 sequence: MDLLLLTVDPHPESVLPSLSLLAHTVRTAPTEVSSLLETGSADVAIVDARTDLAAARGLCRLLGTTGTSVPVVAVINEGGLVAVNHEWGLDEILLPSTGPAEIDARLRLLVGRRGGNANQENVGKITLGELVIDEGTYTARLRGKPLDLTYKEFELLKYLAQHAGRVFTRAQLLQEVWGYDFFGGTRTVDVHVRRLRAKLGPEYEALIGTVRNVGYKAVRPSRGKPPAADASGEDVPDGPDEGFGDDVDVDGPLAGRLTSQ

Row | Sequence | binding
1 | CCGGATGTTCCTTTCAGCTCTGCAGATTCGGGTGCCGTCAGTCCCAGTGCGCCTTGAAACCCAGTGCCGGGACGGTCTCCCCCAGCCCGGGTGTGGAGGCCTTGCGGATCAGGGCCAGTGTCTCGGCATACGTGGTGTGGTTCTCCGCGAGCCGCTCGGCGGGCACGGGCAGGCCCGCGAACTCGAACGCCGCGGAAATCTGTTCCTGCGATGGCATGAAATCGGACATGGTTCTCCTCGCTCTCAGAGGTTGGGGGTGAAGTCGACGAAACCGGCGATCCGCTCGAAGGCCCGGCCTG (double strand) [msmeg_1090 upstream] | no binding
2 | AGGCTTTTCGCCGGCTGCTGTGATCACACCAAGATCGTCGGCGCAGTCGATGACCTAGATGTTGTCGTGAAGTTTCAAGAATGTGACGTCATCAGTCGGCGGCTGCGTCGACCGCCAGCAGCAGTCGCAACGCGCCCGCATCGCGAGGGACTGCCGGGTCGAGGCCGGTACTGCTGGTCACCCTGGCCAGTCGGTTGATGACGGTGTTGCGATGGCAGTAGAGCCTGCGAGCGGTCTCGGTGACGGAACCGGTGTCGAGATAGATGCGCAGCGTGTCCGTGAGCAAGGTCTGATCGCGCG (double strand) [msmeg_3400 upstream] | binds
3 | GGGTCTCTCCAGGGAGGCGATGAGGGTGCGGGCGGCGACAGTGCCGGGAGCCGGATGATCGGCTGGGTCAATTACAGGCCCCGGCCATTGCCGTGTGGTTAGGGATGGACTACTTCTGAATTGCCGAAATCTCACAGCGGCAATGTGCTCGTAATAAGTGCAGCATGCGCCTTGACCTCAACCTCACTTGAGGTGCCAGGCTGGCTCTCATGACATGTGGACTCCAGTGGCCAGAGGCGGTAAACCGCCGCGAACCCGGGGGTAAACCCCCTGGGGACCTGGATCGGCACGCAGTAACTT (double strand) [msmeg_0572 upstream] | binds
4 | CAAACATCTCCTCACGGTGGCGGCTCGAAACAAGCCGTTCACTCGCAGTAACCGACGTTTCTGTTACGGAGATGGTCGCCAAGTGTTGCAGCGTGGTTAAAACTCAAACCGCGCTTTACAGCGGGTTGCCCCATCGGCCCGTGAACGCAACCTGCTCAAGTGCCAGACGTTCACGCGGGCGGCTGTCGCGTTCGGCGATGGCCTCGTCGGCCGTCGCGTAGTCACCGAGGTGTCCCAGCG (double strand) [amt1 upstream] | binds
5 | GTGTGAACCTCCTTGGGAAGTGCGCCGACGGATCGGCCTCCCGATGAGATTCTGTTGCCGGCGTTTCGCCGGTGCTGCCGTTGCGTTTCCGGAAAGTGAACGCAATCCCGATCACTGTTACGCTCATGTTTCCCGCCGACAAAGCACAGGTCGTTGCACAGCCAACGCCGGCTGTAACGCCCCGCAAACACTCCCGCTGCGGCGCCGCGAACCCGACGTC (double strand) [amtB upstream] | binds
6 | CCAGTCCAGGAAATCACCGGATATCGGCTGGCGCGTCATTTTGACGGAAAACGTGGGGTACGCCGTTTCGCCGGGTCACCTCGGCGAACCACCGTGCGCTGGCCTTGGGCGTGCGGACCTGCGTGGCGTAATCGACGTGGATCAGGCCGAACCGCTTGGCGTAGCCGTACGCCCACTCGAAGTTGTCCAGCAGGCTCCACACGAAATAACCGCGGATGTCGGCACCATCGTCGATCGCCCG (double strand) [narK upstream] | no binding
7 | GGACCGGGACCGGATAGCCAGGATCCCAACCGGGAGCCGTTTGTGCGGGCCATGATGTCAGGATAGGCGCGTGCGGATGTCCGGCCGCCGGGTGCCACGTCGCGACGCGGTTCACACCGATGTGTGCTGGAGTTCACCGGCGGACACGCTCAAACCGATTGCGTAACGTCGGCGCAACATCGGGTTGACGACTGCGCAACATCGTGTCCTTAGCGTCAACGCGCGGGTTACCAGTAAAGGAGAACACTCA (double strand) [glnA upstream] | binds
8 | AACGGTGTGCTTCCTCCGCTGTAGGTGGATCACCGCGTGAAGCGGGTGACCGGTGCAGGGTCGGCGCAACTTACTGCGCTTGGAAAATGCTCGCGCAGGAACGTTTCGGTGGATCCCGTCGGCAATGTCGGTGACGTTAACTCTGCACGGCCCCGCGTTACGTTGTGGTGACCTGACGCAACGGATTTCGTTGTGTGTCCGGTAGGCCCGCGTGACGACGAACCCGGCCGGCCGATGTTCGGCCGACCGGGTCGTCACGAGGTCACGGCTA (double strand) [msmeg_2526 upstream] | binds
9 | GGGGTCACCACCTGCTGCTCGGCATCCACCATGTATCCCAGGAACGCACCGGCCCGGCGCGAAACGTGGTAGTGCACCACGAGTTTGCGCCCGCATCCGGTGCAGCCCACCAGGCCGTCGATCTCGACCGCGGCGGTGGTGACGGCGCGGCAGTGCGTACAGAACACGTCGCGGTGGGCGACCTCGGTGCTCGCGATCGTGATCTCGTCGTCGGCGATACCGTGCGCGAGGGCGTGGGCACGCACACGCAGATTCAGGTGAGCGGGGCCGGCGGTCATCAGTCGCCAGCCCACCACCGCG (double strand) [msmeg_4638 upstream] | no binding
10 | TGAGGGTCCTAATCCGTCCCTGAACAGGGAAATTACCGGACCATTTTTTGGTCTGGTCTGAGAATGTCGCCGACGACGTTGTGCTGCGACGCTGGCAATTGTTACCGCGCCCAGATTCGTTGGTCAACTTGGAATTACCTGTACATATGCGGGTTTGTTGCAAACATGTTTCGAAGCTGGGAGCCATGCAACGGCAGCGTAAAAATTCTCGATTTGGTCTGCTCTGGTTCGGCTTTTGGTCCACACTCTTCGACATGCCGGGACTTCCAGCTGACCACGAACTGTTCGCGCGCGCCGCAC (double strand) [msmeg_0781 upstream] | binds
11 | GCGAGGCAGACTAGCGGCATGACCGATGACGGCTACACAGTCGGTGACTACCTCCTGGACCGGCTCGCCGAACTCGGCGTGACCGAGGTCTTCGGCGTCCCCGGCGACTATCAGCTGGAGTTCCTCGACCACGTCGTGGCGCACCCGCGCATCACGTGGGTCGGCGGCGCGAACGAACTCAACGCGGGCTACGCGGCCGACGGCTACGGCCGGCTGCGGGGCATGGCGGCGTTGGTCACCACGTTCGGCGTCGGTGAGCTCTCGGCGGCCAACGCCATCGCAGGCAGCTACGCCGAGCAC (double strand) [msmeg_5734 upstream] | no binding
12 | TGCAGTATCACTACTTTCTTGTTATCCACTTGTCAGGCGTTCGCGGTCTCTGGAGTTTGCTGTGAGGTTTCCTTGAGCCCGAGGCGGGCCCGGATGACGAGGCCGATGACGAACAGTGCCGCGGTGACGATGAACGGCGCCCAGTCGACCCACGGGTCGCCCGTGCGGGGCCACAGGACGTTGACGGTCTCCACGATCACCCACACCAGCGCGAGCCACCCCGCAACGTGTCCGGCACGGCCCAGGAAGGTCGGTTCGGTGGGGTCCCAGGTGCCCCGGAGCTTGCTGATCGCCAACCCC (double strand) [msmeg_6734 upstream] | no binding
13 | GTGGCGCGGCAGGGCGGCCACGGGCAGGCCCTGCTGGTCTTCGACACCGGTGACGGCCGCACGCTGCAGACCCATCCGCTTCCCGAGGCCACCGGCTGGCCGGTCGGGGTATCGATCGGCCACGACGGCCGCGTGGTCACCGCGACGAGTGACGGGCAAGTGTATGGCTTCTCACCGGCATGATGCCGGAAGTTTTACAGGGAATTGACGAAATCTCCACAGAAAGTGGTGGGCTTCGTGTGAGGATTTGGCGCGGCAACCGTGCAAGATCAATGAATTTCTGGGGGAAGGCAATAACCA (double strand) [msmeg_1052 upstream] | no binding
14 | GAACAACCTTTCCCGATGATTGCAGCGCATTTTGGGCCGATCGCCTCGGCCGCGGTGCAGGAGGTTAAACACACTGTGCTGGTGTCGAATCGGGACGTTAGAGCGCGCGTGTTACTGCCAAATGTCTGTGTGTGACGAACAAATTAACCTCGACATGACATGCCGCTGGTTTGCCGCCGGTTCTCGACGCCGTGACACCGGCGTGGCGTGTGTAACGGGGAGGTAGCCTGCGTCGATATG (double strand) [urtA upstream] | binds
15 | CCGCGACGTCGACCGCGCGCCCGGTCACCGGGCCCGGACCCGGCAAGGTGGTCGTGGTGTCGACGACAGGGGACCCGGCGACGCCGTACCAGGCCGGTGTGGACCTCGCCCGGCAAATGGGCGCGGCCCTGATCAGTTTCGACGGTGCGCAGCACACCGTGGTGTTCAACGGAGATGCCTGCGTCGACACCGCGGTGTTGCGCTTCCTGACCGATCTGCAGTCGCCCCCGGGCAACCTTGCCTGCTAGCTCTTGCACCCCCGTAACACAGATTTAACAGCCGGTGCATACGCTGCGGAGC (double strand) [glnA2 upstream] | binds
16 | CATGTGCCACCGTCGCGGCACGCGCGCCGACGAGTTCGCGCGCAGCCGCGGGCAGTTCGGCCGTGGCGGCGCGCAGACCGGCCACCGAGGTCGCCGCGTCGATGTGGCGCTGCACGAGGTCGGGGGCGGGCATACCGGCGATTGTGACAGGCCCACGGGCGGTGAGGGTTCTGCAACCGAATGCTTACCGACGGCTACATGAACGAAACATTCGGGTGACGCCGAGGACACGCGCCCATTGTTATCTGTCATCTGACAGGTAAGAGCTGGCGGCAGCGCCCCTAGCCAGAGAGAAAACCC (double strand) [msmeg_2184 upstream (GlnR probe)] | binds
17 | GTCCGCCAAGTTACCGGCCGGAAAAATAAGGTGCGCGCCTCCCTTATCCTTGTTGGGACTCATTCCGGCTCGATCCCACATGCGAAAGGTTGATCAGGTGGCGCTCGTCGTACAGAAATACGGCGGATCCTCGGTGGCGGACGCCGAGAGGATCCGACGGGTCGCCGAGCGGATCGTCGAGACCAAGAAGGCGGGCAACGACGTCGTCGTCGTCGTCTCCGCGATGGGTGACACCACCGATGACCTGCTGGACCTGGCGCGCCAGGTGTCGCCCGCGCCGCCGCCGCGCGAGATGGACAT (double strand) [msmeg_6258 upstream] | no binding
18 | TTCGGTGTACCTGTGGAAGAACACCGTGGAGAAGGCACAGTCCTTCGACGTCAAGGCAATTCAGGACAACGCCGATGGCGTGAGCTTCGACGCGCCCGAGGGCAAGGTCACCATCGACGGCGAGAACCACCACATCACCAAGACCGCCCGCATCGGTGAGATCCGCCCCGACGGCCTGATCTACACGGTGTGGGAGTCCAAGGGCCCCATCGAGCCGGATCCGTACCTGAAGTCCTACCCGTGGGCCGCAGGGCTGTCGAGCTGATCAGATAGTCACACCGAGGGGGATCTGACAACCGT (double strand) [msmeg_2981 upstream] | no binding
19 | GGTGCCGACCGCCCCGACGACGAGCGCGGCCACCGCCGCGACGAACCCGACCACCAGTCTGCGCACCGGGACATTGTTGCCCACGAGACCGGCAAAGATTCGCTCGGCGCGGCTGACGAGCAGGTGAGGCGTTATCCTCGTAACACCAAAGGCCGGTAACGGCTACATGTCAGTCATGAATCCGGAAGATCACCCGACACCGGCGTCTGTGTTCTCCCGCAGAGATTCCTGACGAGCCGGGAGGACTTG (double strand) [glnR upstream] | no binding
